These results are taken from the supplement of paper PMC10724198.

± gives the standard deviation of the averaged measurements.

This series concerns Saccharomyces cerevisiae. The experiment in a line: protein stability index of tFT-peptide fusion (C-terminal peptide) (PSI (0-1 scale)); higher = more stable (slower turnover). The settings on record: temperature: 30 C. As for the experimental part: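 MPS profiling in S. cerevisiae of the yeast C-terminome library: the last 12 aa of each annotated ORF are fused to the C-terminus of a sfGFP-mCherry timer, after a GGGS linker. Cells are FACS-sorted into 8 mCherry/sfGFP bins and deep-sequenced. PSI runs from 0 (unstable) to 1 (stable); wild type and das1Δ backgrounds, two technical replicates each.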

[1] abbreviates: genetic background: das1 deletion.

As to NKKRLSVDYILT [USV1 C-terminal 12 aa], the protein stability index amounted to 0.689 ± 0.05 under setting [1] and 0.679 ± 0.022 (genetic background: wild type).
As to NKNKNKVTKGRR [RAD27 C-terminal 12 aa], the protein stability index by setting is: under setting [1], 0.668 ± 0.024; (genetic background: wild type) 0.672 ± 0.026.
For the sequence NKVDINMEQEKF [UGO1 C-terminal 12 aa], the protein stability index runs as follows: under setting [1], 0.699 ± 0.043; (genetic background: wild type) 0.651 ± 0.027.
NLANDEQPLHNL [MDM30 C-terminal 12 aa]: the protein stability index is, setting by setting: under setting [1], 0.699 ± 0.02; (genetic background: wild type) 0.659 ± 0.03.
In the same order, the values of NLGYSKDQVFKF [MCR1 C-terminal 12 aa] are 0.708 ± 0.0082 and 0.688 ± 0.039.
The sequence NMIIDTLGGNEK [COQ6 C-terminal 12 aa] displayed a protein stability index under setting [1] of 0.735 ± 0.019 and a protein stability index (genetic background: wild type) of 0.692 ± 0.013.
In the same order, the values of NNLNTNTSTTTQ [MIT1 C-terminal 12 aa] are 0.682 ± 0.011 and 0.68 ± 0.065.
In the same order, the values of NNLQSFYFDNSN [BCK2 C-terminal 12 aa] are 0.689 ± 0.018 and 0.706 ± 0.03.
As for NNNIANDYMDID [YML053C C-terminal 12 aa], the protein stability index came to 0.7268 ± 0.005 under setting [1] and 0.815 ± 0.067 (genetic background: wild type).
On to “NNRYKNFSPKRL [YHR071C-A C-terminal 12 aa]”, for which the protein stability index was found to be 0.746 ± 0.011 under setting [1] and 0.683 ± 0.034 (genetic background: wild type).
In the case of NPTIGRDSKKAV [PEX30 C-terminal 12 aa], the protein stability index is, setting by setting: under setting [1], 0.694 ± 0.011; (genetic background: wild type) 0.702 ± 0.015.
In the case of “NPWKSQIRDWKN [YBL100W-C C-terminal 12 aa]”, the protein stability index is, setting by setting: under setting [1], 0.704 ± 0.018; (genetic background: wild type) 0.77 ± 0.031.
In the case of NRLKGQNSHQQR [RGS2 C-terminal 12 aa], the protein stability index worked out at 0.7072 ± 0.0026 under setting [1] and 0.726 ± 0.035 (genetic background: wild type).
In the same order, the values of NRRSDKNLPDAT [STE12 C-terminal 12 aa] are 0.7085 ± 0.002 and 0.694 ± 0.0077.
Take NSEKDQVPILSS [SSK22 C-terminal 12 aa]: the protein stability index amounted to 0.702 ± 0.011 under setting [1] and 0.729 ± 0.041 (genetic background: wild type).
As for NSTSSKDKKKKN [SES1 C-terminal 12 aa], the protein stability index under setting [1] stood at 0.707 ± 0.008 and the protein stability index (genetic background: wild type) was found to be 0.7314 ± 0.0025.
In the same order, the values of NTAKATYDLYTN [GPI8 C-terminal 12 aa] are 0.686 ± 0.012 and 0.6703 ± 0.0046.
NTQVDDETKKNN [YDC1 C-terminal 12 aa] registered a protein stability index under setting [1] of 0.7078 ± 0.0056 and a protein stability index (genetic background: wild type) of 0.7367 ± 0.0051.
Take NVDVVTPNSIFI [TMA17 C-terminal 12 aa]: the protein stability index runs as follows: under setting [1], 0.67 ± 0.036; (genetic background: wild type) 0.6982 ± 0.0046.
In the same order, the values of NVKVKALQRMTW [TIS11 C-terminal 12 aa] are 0.6967 ± 0.0018 and 0.729 ± 0.039.
In the case of NVPSFGQDELDQ [MPS3 C-terminal 12 aa], the protein stability index runs as follows: under setting [1], 0.699 ± 0.016; (genetic background: wild type) 0.688 ± 0.011.
With NVTGSANNGTHI [SVS1 C-terminal 12 aa], the protein stability index turned out to be 0.708 ± 0.032 under setting [1] and 0.671 ± 0.016 (genetic background: wild type).
On to NYDLQKLYDKID [QDR3 C-terminal 12 aa], for which the protein stability index by setting is: under setting [1], 0.705 ± 0.037; (genetic background: wild type) 0.6544 ± 0.0034.
As to NYLKKHSEKQDA [ATP19 C-terminal 12 aa], the protein stability index reads like this: under setting [1], 0.709 ± 0.022; (genetic background: wild type) 0.723 ± 0.066.
On to PEALIKSMTSKL [SPS19 C-terminal 12 aa], for which the protein stability index runs as follows: under setting [1], 0.712 ± 0.038; (genetic background: wild type) 0.725 ± 0.18.
As to PEKGSGFNTNLG [DCS2 C-terminal 12 aa], the protein stability index reads like this: under setting [1], 0.6973 ± 0.0014; (genetic background: wild type) 0.738 ± 0.025.
PKRGGLFGFGRL [JIP4 C-terminal 12 aa]: the protein stability index is, setting by setting: under setting [1], 0.7853 ± 0.0046; (genetic background: wild type) 0.762 ± 0.023.
In the case of PLGEKFLNISNS [TEN1 C-terminal 12 aa], the protein stability index by setting is: under setting [1], 0.7047 ± 0.0035; (genetic background: wild type) 0.694 ± 0.013.
In the case of PLMTVLGLEKKK [DPC13 C-terminal 12 aa], the protein stability index reads like this: under setting [1], 0.703 ± 0.021; (genetic background: wild type) 0.675 ± 0.064.
In the same order, the values of PLTRFHSCPITA [ECM13 C-terminal 12 aa] are 0.275 ± 0.035 and 0.301 ± 0.013.
Regarding PPASESNKGINE [YDR008C C-terminal 12 aa], the protein stability index by setting is: under setting [1], 0.694 ± 0.013; (genetic background: wild type) 0.661 ± 0.032.
For the sequence PPKSIFDTDDDD [RCN1 C-terminal 12 aa], the protein stability index stood at 0.741 ± 0.025 under setting [1] and 0.714 ± 0.054 (genetic background: wild type).
Consider PSPGFHMYGCHT [YLR156W C-terminal 12 aa], for which the protein stability index is 0.708 ± 0.022 under setting [1] and 0.695 ± 0.0084 (genetic background: wild type).
For the sequence PSYAKVQEFATP [NEO1 C-terminal 12 aa], the protein stability index by setting is: under setting [1], 0.71 ± 0.0097; (genetic background: wild type) 0.684 ± 0.0059.
In the same order, the values of PVTPAVSKRYQP [YER084W C-terminal 12 aa] are 0.715 ± 0.0072 and 0.6939 ± 0.003.
For the sequence QAIEDKLNKMSR [BIL1 C-terminal 12 aa], the protein stability index under setting [1] was determined as 0.686 ± 0.026 and the protein stability index (genetic background: wild type) stood at 0.683 ± 0.018.
Take “QALFVLYYLYSI [YDR406W-A C-terminal 12 aa]”: the protein stability index runs as follows: under setting [1], 0.428 ± 0.018; (genetic background: wild type) 0.445 ± 0.013.
In the same order, the values of QDKQVKSWWRFW [CBP4 C-terminal 12 aa] are 0.762 ± 0.016 and 0.7144 ± 0.0053.
Take QEANDDLMIDVN [ENP1 C-terminal 12 aa]: the protein stability index reads like this: under setting [1], 0.678 ± 0.045; (genetic background: wild type) 0.699 ± 0.015.
QGQKFIHDNNTN [YMR245W C-terminal 12 aa] yielded a protein stability index under setting [1] of 0.673 ± 0.031 and a protein stability index (genetic background: wild type) of 0.646 ± 0.018.
In the same order, the values of QHIKTHKKHGDI [MSN2 C-terminal 12 aa] are 0.67783 ± 0.00033 and 0.667 ± 0.014.
Consider QIDKLLTVLDSL [RTP1 C-terminal 12 aa], for which the protein stability index stood at 0.717 ± 0.023 under setting [1] and 0.691 ± 0.038 (genetic background: wild type).
In the same order, the values of QIIYYIARSKGL [MEC3 C-terminal 12 aa] are 0.665 ± 0.058 and 0.668 ± 0.035.
Turning to QIRSVFSGVYGG [ASP3-1 C-terminal 12 aa], the protein stability index is, setting by setting: under setting [1], 0.691 ± 0.013; (genetic background: wild type) 0.689 ± 0.049.
On to QKAKLNKLDSKK [NOP7 C-terminal 12 aa], for which the protein stability index reads like this: under setting [1], 0.677 ± 0.0057; (genetic background: wild type) 0.704 ± 0.068.
As for QKEPNDQIDVEE [GPN3 C-terminal 12 aa], the protein stability index reads like this: under setting [1], 0.673 ± 0.025; (genetic background: wild type) 0.698 ± 0.042.
Take QKRIQRKKMNEM [AIM23 C-terminal 12 aa]: the protein stability index amounted to 0.71243 ± 0.0002 under setting [1] and 0.663 ± 0.014 (genetic background: wild type).
Regarding QKYLEELQKKKF [YET2 C-terminal 12 aa], the protein stability index by setting is: under setting [1], 0.712 ± 0.023; (genetic background: wild type) 0.7424 ± 0.0019.
In the same order, the values of QLIDIAKKMGIL [BIR1 C-terminal 12 aa] are 0.678 ± 0.051 and 0.276 ± 0.0083.
Turning to QLQMILFGKKFK [PET9 C-terminal 12 aa], the protein stability index is, setting by setting: under setting [1], 0.711 ± 0.016; (genetic background: wild type) 0.701 ± 0.021.
